According to patent publication US20200056171A1:

Target: sodium taurocholate cotransporting polypeptide (NTCP) (UniProt Q14973)
Assay: cell-based or functional assay

Sequence of UniProt Q14973 (Q14973 whole entry): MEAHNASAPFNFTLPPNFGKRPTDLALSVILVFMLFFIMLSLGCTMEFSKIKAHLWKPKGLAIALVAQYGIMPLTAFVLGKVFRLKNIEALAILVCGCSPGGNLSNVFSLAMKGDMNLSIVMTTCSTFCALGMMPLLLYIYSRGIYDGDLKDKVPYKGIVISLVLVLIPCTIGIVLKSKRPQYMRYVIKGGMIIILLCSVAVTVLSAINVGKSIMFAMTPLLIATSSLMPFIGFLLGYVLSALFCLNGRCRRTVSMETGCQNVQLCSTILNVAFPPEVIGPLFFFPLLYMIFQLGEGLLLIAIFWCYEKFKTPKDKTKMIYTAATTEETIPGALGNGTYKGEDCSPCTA

## Myrcludex B (peptide)
  DsRed-positive CreC/CIR cells by FACS, day 7 after rHBV-CreN infection (MOI=250) with MyrB: < 1%
  DsRed-positive CreC/CIR cells by flow cytometry, day 10 after rHBV-CreN infection (MOI=300) with MyrB: < 1%
